# Patent US20050282743A1, “Molecular interactions in cells” (Arbor Vita Corporation, priority 2001, published 2005)
# Ends that are not written are not given here. * marks the point of attachment. Biotin = O=C1N[C@H]2[C@H](CS[C@H]2CCCCC(=O)*)N1
# Assays:
# Assay type in all cases: binding
# [1] = molecular target: T1, PDZ protein (GST-PDZ fusion) (Homo sapiens, UniProt Q6P0Q8); assay: G' assay (10 uM PL peptide), results of TABLE 7 and TABLE 12
# T1 construct: made in house; host or cells: E. coli (DH5alpha, BL21 or JM109)
# T1 sequence (Q6P0Q8 whole entry, the tested form may be a part): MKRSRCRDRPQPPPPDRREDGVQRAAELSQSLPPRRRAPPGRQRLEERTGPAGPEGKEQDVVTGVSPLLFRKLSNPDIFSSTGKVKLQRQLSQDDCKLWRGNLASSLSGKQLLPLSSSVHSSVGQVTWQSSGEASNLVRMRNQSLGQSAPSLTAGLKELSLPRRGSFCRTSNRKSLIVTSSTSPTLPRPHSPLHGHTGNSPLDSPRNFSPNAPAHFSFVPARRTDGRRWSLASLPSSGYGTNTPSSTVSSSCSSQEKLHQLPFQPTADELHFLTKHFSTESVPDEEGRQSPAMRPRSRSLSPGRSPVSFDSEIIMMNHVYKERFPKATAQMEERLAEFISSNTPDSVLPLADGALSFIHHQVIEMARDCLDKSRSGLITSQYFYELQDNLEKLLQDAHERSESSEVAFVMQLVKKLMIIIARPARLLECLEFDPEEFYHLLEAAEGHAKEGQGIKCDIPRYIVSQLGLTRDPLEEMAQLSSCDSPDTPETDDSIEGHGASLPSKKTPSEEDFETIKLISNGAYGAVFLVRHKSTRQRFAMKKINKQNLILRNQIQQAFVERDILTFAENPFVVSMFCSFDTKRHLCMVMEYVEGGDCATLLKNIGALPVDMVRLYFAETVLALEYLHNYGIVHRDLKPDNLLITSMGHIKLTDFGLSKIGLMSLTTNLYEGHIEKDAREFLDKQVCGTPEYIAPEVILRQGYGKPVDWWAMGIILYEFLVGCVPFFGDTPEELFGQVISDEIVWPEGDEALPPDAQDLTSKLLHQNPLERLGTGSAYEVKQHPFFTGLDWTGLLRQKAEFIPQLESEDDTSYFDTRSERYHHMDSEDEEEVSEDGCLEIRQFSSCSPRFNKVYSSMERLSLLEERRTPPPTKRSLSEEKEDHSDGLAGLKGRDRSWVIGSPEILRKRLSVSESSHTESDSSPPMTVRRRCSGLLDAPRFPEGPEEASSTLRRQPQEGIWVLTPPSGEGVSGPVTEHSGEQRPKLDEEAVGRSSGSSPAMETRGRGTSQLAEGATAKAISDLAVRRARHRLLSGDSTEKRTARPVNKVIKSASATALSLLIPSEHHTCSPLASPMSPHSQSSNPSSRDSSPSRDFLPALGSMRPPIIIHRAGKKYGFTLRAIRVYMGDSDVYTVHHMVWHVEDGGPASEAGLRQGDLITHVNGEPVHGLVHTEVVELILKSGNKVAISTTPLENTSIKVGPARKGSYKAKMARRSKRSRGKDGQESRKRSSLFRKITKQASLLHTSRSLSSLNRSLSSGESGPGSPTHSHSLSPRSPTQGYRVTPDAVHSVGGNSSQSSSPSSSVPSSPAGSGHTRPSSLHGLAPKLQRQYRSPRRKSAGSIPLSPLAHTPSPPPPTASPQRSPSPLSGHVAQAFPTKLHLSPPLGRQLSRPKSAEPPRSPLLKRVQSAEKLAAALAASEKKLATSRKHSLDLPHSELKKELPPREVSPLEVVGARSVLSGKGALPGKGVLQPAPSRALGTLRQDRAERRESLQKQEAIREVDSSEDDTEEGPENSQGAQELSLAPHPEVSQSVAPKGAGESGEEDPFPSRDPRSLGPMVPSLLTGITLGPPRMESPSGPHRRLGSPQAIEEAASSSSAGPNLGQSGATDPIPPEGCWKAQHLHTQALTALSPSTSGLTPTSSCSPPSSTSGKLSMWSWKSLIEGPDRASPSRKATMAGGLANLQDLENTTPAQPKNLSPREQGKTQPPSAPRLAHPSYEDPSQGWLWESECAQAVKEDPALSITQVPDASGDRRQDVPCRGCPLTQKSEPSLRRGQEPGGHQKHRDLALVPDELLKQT
# From the text: (§1) Each page of TABLE 7 and 12 includes seven columns. The columns in each table are numbered from left to right such that the left-most column in each table is column 1 and the right-most column in each table is column 7. Thus, the first column in each table is labeled “AVC ID”; this column simply lists an internal reference number used to refer to the carboxyl-terminal amino acids of the PL proteins listed in the second column. […] All PL peptides were biotinylated at the amino-terminus and the sequences of these PL peptides are presented in TABLE 8 (see end of specification).
# (§2) This column provides the gene name for the PDZ portion of the GST-PDZ fusion that interacts with the PDZ-ligand to the left. For PDZ domain-containing proteins with multiple domains, the domain number is listed to the right of the PDZ (i.e., in column 5 labeled “PDZ Domain”), and indicates the PDZ domain number when numbered from the amino-terminus to the carboxy-terminus.
# (§3) The third column labeled “Peptide Optimal Concentration” in the tables is a number reflective of the binding interaction between the PL protein and PDZ protein. […] The column labeled “Protein Optimal Concentration” refers to the protein concentration used to assay PL interaction (in ug/ml); a ‘0’ is indicative of 5 ug/ml protein concentration; any other value represents the concentration (in ug/ml) used to determine the dissociation constant for a given interaction.
# (§4) Finally, the seventh column labeled “Classification” is another measure of the level of binding. In particular, it provides an absorbance value at 450 nm which indicates the amount of PL peptide bound to the PDZ protein. The following numerical values have the following meanings: ‘1’—A450 nm 0-1; ‘2’—A450 nm 1-2; ‘3’—A450 nm 2-3; ‘4’—A450 nm 3-4; ‘5’—A450 nm of 4 more than 2× repeated; ‘0’—A450 nm 0, i.e., not found to interact. Thus, higher numbers indicate stronger interactions.
# (§5) For convenience, the assay conditions described in this section are referred to as the “G′ assay” and the “G″ assay,” with the specific conditions described in the preceding section on G assays being referred to as the “G^0 assay.” The “G′ assay” is identical to the “G^0 assay” except at step (2) the peptide concentration is 10 uM instead of 20 uM.
# [2] = molecular target: T2, PDZ protein (GST-PDZ fusion) (Homo sapiens, UniProt Q9NZN5); assay: as above; conditions: PDZ KIAA0382, PDZ Domain 1
# T2 construct: made in house; host or cells: E. coli (DH5alpha, BL21 or JM109)
# From the text: as §1, §2, §3, §4, §5
# [3] = test system: PDZ protein (GST-PDZ fusion); assay: as above
# From the text: as §1, §2, §3, §4, §5
# [4] = molecular target: T3, PDZ protein (GST-PDZ fusion) (Homo sapiens, UniProt O14907); assay: as above; conditions: PDZ TIP1, PDZ Domain 1
# T3 construct: made in house; host or cells: E. coli (DH5alpha, BL21 or JM109)
# T3 sequence (O14907 1-124): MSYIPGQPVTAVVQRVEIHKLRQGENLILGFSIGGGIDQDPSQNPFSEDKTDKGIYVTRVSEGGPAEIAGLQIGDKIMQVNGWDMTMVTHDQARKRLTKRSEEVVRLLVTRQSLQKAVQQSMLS
# From the text: as §1, §2, §3, §4, §5
# [5] = molecular target: T4, DLG-1 (Homo sapiens, UniProt Q12959); assay: G assay competition of short unlabeled peptides with biotinylated 20-mers (Example 6, TABLE 6); conditions: 100 = no competitor
# T4 construct: protein spans from amino terminal end of first PDZ domain to carboxy-terminal end of third PDZ domain in frame with GST in vector; made in house; host or cells: E. coli DH5alpha
# T4 sequence (Q12959 224-546 limits assumed): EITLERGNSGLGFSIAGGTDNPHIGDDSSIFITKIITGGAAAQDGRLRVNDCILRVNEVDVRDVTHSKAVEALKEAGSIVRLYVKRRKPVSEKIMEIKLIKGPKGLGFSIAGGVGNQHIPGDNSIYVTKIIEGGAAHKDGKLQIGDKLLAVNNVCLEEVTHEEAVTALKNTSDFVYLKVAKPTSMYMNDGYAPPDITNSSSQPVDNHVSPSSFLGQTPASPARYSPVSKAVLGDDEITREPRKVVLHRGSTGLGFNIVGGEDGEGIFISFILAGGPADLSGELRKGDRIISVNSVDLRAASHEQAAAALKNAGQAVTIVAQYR
# From the text: (§6) The potential for unlabeled 8-mers and 3-mers to compete for binding with biotinylated 20-mers to PDZ domains was examined. Interactions between a PDZ domain and two or more biotinylated peptides mimicking PDZ ligands identified through the ‘G Assay’ were used as model interactions. Short, 3 or 8 amino acid, unlabeled peptides were synthesized by standard techniques and used at variable concentrations with a set concentration of biotinylated 20-mer. Ability of both the 3-mer and 8-mer to inhibit longer peptide binding was observed, making PDZ:PL interactions an attractive target for design of small molecule or peptide therapeutics.
# (§7) Peptides representing the C-terminal 3, 8 or 20 amino acids of a PDZ ligand were synthesized by standard FMOC chemistry and biotinylated if not used as an unlabeled competitor. Peptides three amino acids in length were acetylated to more properly mimic the peptide bond without introducing an amino-terminal charged group. Peptides were purified by reverse phase high performance liquid chromatography (HPLC) using a Vydac 218TP C18 Reversed Phase column having the dimensions of 10*25 mm, 5 um. Approximately 40 mg of peptide was dissolved in 2.0 ml of and aqueous solution of 49.9% acetonitrile and 0.1% Tri-Fluoro acetic acid (TFA). This solution was then injected into the HPLC machine through a […] syringe filter (Millipore). Buffers used to get a good separation are (A) distilled water with 0.1% TFA and (B) 0.1% TFA with Acetonitrile.
# (§8) The G Assay was performed as described in EXAMPLE 3 with the exception that when a short competitor was used, 30 ul of competitor peptide (at twice the final concentration) was mixed with 30 ul biotinylated 20-mer (at twice the final concentration) and then added to the well.
# (§9) PSD-95 and DLG-1 were incubated in the wells at 5 ug/ml as described in the G Assay protocol. Biotinylated 20-mer peptides used were 20 uM CLASP-2, 20 uM CD46, 10 uM CD95, and 10 uM KV1.3 (find sequences of peptides in TABLE 8). Competitors (unlabeled, short peptides) tested against each of the biotinylated peptides were 50 uM 8-mer of CD95, 100 uM 8-mer of CD46, 50 uM 8-mer of CLASP-2, and 1 mM and 500 uM acetylated 3-mer of CLASP-2. To deduce sequences, refer to TABLE 8. All absorbances were read at 450 nm after stopping TMB detection reaction at 30 min. Results were normalized in each group by dividing its A450 by the A450 of the PDZ/peptide binding in the absence of competitor and converting to percentage by multiplying by 100.
# [6] = molecular target: T5, PSD-95 (Homo sapiens, UniProt P78352); assay: as above; conditions: for % binding: 100 = no competitor
# T5 construct: protein spans from amino terminal end of first PDZ domain to carboxy-terminal end of third PDZ domain in frame with GST in vector; made in house; host or cells: E. coli DH5alpha
# T5 sequence (P78352 58-398 limits assumed): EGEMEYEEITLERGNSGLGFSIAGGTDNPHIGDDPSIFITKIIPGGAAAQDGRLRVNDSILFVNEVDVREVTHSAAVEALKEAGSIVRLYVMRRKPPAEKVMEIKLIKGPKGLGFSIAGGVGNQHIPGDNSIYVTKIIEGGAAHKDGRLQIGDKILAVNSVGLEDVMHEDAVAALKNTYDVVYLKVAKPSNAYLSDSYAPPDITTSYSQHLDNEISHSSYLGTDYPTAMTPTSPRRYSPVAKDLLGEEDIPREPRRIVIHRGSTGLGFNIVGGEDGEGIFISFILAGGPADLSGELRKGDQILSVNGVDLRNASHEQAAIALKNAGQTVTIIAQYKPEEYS
# From the text: as §6, §7, §8, §9
# [7] = molecular target: T6, PDZ protein (GST-PDZ fusion) (Homo sapiens, UniProt Q9P202); assay: G' assay (10 uM PL peptide), results of TABLE 7 and TABLE 12; conditions: PDZ KIAA1526, PDZ Domain 1
# T6 construct: made in house; host or cells: E. coli (DH5alpha, BL21 or JM109)
# T6 sequence (Q9P202 1-907): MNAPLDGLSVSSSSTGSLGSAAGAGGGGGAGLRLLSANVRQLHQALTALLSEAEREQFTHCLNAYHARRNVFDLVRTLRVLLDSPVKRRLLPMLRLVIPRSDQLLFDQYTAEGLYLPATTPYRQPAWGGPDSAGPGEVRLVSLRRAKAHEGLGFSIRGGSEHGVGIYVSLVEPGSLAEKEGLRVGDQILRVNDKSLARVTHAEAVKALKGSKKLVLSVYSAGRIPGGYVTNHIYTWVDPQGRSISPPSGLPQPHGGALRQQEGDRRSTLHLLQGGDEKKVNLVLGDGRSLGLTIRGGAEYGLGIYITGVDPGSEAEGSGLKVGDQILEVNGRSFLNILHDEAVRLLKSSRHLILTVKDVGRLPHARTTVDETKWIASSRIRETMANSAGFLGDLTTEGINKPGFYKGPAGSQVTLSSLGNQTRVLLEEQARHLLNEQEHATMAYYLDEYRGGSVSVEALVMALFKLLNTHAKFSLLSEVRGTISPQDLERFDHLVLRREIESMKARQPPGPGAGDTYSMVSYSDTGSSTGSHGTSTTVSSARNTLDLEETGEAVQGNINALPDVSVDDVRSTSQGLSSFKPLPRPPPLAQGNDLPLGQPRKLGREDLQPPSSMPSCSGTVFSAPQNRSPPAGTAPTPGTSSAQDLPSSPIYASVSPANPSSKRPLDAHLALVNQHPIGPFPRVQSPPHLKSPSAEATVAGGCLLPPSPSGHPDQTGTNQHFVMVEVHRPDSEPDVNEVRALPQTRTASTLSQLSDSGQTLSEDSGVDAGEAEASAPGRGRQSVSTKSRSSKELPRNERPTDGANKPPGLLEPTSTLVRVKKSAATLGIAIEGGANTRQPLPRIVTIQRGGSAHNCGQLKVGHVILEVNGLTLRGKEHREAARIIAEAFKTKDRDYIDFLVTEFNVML
# From the text: as §1, §2, §3, §4, §5
# [8] = molecular target: T7, PDZ protein (GST-PDZ fusion) (Homo sapiens, UniProt Q13796); assay: as above; conditions: PDZ hAPXL, PDZ Domain 1
# T7 construct: made in house; host or cells: E. coli (DH5alpha, BL21 or JM109)
# T7 sequence (Q13796 whole entry, the tested form may be a part): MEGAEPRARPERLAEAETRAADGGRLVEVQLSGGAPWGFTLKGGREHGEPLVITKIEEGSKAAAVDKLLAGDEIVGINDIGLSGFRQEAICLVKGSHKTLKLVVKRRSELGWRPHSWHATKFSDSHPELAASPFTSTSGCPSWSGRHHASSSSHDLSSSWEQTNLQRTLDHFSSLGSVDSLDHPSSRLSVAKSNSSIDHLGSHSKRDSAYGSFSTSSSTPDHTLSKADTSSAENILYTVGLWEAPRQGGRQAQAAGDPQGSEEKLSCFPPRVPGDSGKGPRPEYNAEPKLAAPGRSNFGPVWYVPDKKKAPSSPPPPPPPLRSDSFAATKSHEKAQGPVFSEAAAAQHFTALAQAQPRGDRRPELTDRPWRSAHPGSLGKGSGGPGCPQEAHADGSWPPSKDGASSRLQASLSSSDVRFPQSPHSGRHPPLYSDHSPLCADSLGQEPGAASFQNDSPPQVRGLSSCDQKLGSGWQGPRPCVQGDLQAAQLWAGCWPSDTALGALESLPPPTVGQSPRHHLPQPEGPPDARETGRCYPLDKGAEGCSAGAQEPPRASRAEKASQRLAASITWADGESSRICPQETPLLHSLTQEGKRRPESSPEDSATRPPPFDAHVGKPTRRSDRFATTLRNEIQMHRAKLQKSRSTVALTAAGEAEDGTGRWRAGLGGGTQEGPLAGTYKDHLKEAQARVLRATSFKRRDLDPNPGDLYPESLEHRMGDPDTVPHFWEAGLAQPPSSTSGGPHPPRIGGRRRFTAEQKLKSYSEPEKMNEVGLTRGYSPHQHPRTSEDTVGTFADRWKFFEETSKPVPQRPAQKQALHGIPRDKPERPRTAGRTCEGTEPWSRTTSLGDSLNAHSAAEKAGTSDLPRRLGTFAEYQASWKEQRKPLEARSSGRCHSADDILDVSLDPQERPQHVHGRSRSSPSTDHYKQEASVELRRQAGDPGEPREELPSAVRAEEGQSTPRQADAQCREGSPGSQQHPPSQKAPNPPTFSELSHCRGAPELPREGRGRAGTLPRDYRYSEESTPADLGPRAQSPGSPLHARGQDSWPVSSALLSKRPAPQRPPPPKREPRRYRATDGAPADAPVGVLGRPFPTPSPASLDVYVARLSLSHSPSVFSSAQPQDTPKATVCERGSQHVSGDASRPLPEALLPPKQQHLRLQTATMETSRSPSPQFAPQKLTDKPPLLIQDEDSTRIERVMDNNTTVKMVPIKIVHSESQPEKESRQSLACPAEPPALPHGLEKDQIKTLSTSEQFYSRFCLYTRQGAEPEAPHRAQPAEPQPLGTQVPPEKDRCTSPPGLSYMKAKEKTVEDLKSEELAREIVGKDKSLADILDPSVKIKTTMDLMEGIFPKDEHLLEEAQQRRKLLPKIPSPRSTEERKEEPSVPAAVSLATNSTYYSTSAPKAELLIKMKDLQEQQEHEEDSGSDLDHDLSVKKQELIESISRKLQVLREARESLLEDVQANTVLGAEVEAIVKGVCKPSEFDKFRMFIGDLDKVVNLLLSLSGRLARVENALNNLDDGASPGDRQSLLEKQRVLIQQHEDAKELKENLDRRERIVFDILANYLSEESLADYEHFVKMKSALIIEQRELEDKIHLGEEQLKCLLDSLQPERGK
# From the text: as §1, §2, §3, §4, §5
# [9] = molecular target: T8, PDZ protein (GST-PDZ fusion) (Homo sapiens, UniProt O15018); assay: as above; conditions: PDZ AIPC, PDZ Domain 1
# T8 construct: made in house; host or cells: E. coli (DH5alpha, BL21 or JM109)
# From the text: as §1, §2, §3, §4, §5
# [10] = biotinylated 20-mer CD46 20 uM, competitor 100 uM
# [11] = biotinylated 20-mer CD95 10 uM, competitor 100 uM
# [12] = biotinylated 20-mer CLASP-2 20 uM, competitor 100 uM
# [13] = biotinylated 20-mer KV1.3 10 uM, competitor 100 uM
# [14] = biotinylated 20-mer CD46 20 uM, competitor 500 uM
# [15] = biotinylated 20-mer CD46 20 uM, competitor 1000 uM
# [16] = biotinylated 20-mer CD95 10 uM, competitor 500 uM
# [17] = biotinylated 20-mer CD95 10 uM, competitor 1000 uM
# [18] = biotinylated 20-mer CLASP-2 20 uM, competitor 500 uM
# [19] = biotinylated 20-mer CLASP-2 20 uM, competitor 1000 uM
# [20] = biotinylated 20-mer CD46 20 uM, competitor 50 uM
# [21] = biotinylated 20-mer CD95 10 uM, competitor 50 uM
# [22] = biotinylated 20-mer CLASP-2 20 uM, competitor 50 uM
substance,measurement,setting,value
KDSRPSFVGSSSGHTSTTL (Biotin-KDSRPSFVGSSSGHTSTTL) [CDw128B],Classification,[1]; PDZ KIAA807,5 (A450 nm of 4 more than 2× repeated)
same,Classification,"[1]; PDZ KIAA0807(S), PDZ Domain 1",5 (A450 nm of 4 more than 2× repeated)
same,Classification,[2],2 (A450 nm 1-2)
same,Classification,"[3]; PDZ SHANK, PDZ Domain 1",3 (A450 nm 2-3)
SEGGRPTRGPRLQGRRVTQV [HPV E6 52 (modified)],Classification,[4],"0 (A450 nm 0, i.e., not found to interact)"
same,Classification,"[3]; PDZ BAI-1, PDZ Domain 2",5 (A450 nm of 4 more than 2× repeated)
SGGNRARQERLQRRRETQV (Biotin-SGGNRARQERLQRRRETQV) [HPV E6 #18],Classification,[4],4 (A450 nm 3-4)
same,Classification,"[3]; PDZ BAI-1, PDZ Domain 2",5 (A450 nm of 4 more than 2× repeated)
"REVKFTSL [CD46 8-mer, unlabeled peptide of the C-terminal 8 amino acids of CD46]",% binding,[5]; [10],90%
same,% binding,[5]; [11],68%
same,% binding,[5]; [12],90%
same,% binding,[5]; [13],63%
same,% binding,[6]; [10],95%
same,% binding,[6]; [11],65%
same,% binding,[6]; [12],81%
same,% binding,[6]; [13],71%
SSPTYRALLLQGPSQSSSEA (Biotin-SSPTYRALLLQGPSQSSSEA),Classification,[7],1 (A450 nm 0-1)
GPDGIITVNDFTQNPRVQLE (Biotin-GPDGIITVNDFTQNPRVQLE) [ropporin],Classification,[4],1 (A450 nm 0-1)
"SVV [CLASP-2 3-mer, acetylated peptide of the C-terminal 3 amino acids of CLASP-2]",% binding,[5]; [14],72%
same,% binding,[5]; [15],45%
same,% binding,[5]; [16],51%
same,% binding,[5]; [17],46%
same,% binding,[5]; [18],61%
same,% binding,[5]; [19],59%
same,% binding,[6]; [14],75%
same,% binding,[6]; [15],59%
same,% binding,[6]; [16],55%
same,% binding,[6]; [17],55%
same,% binding,[6]; [18],82%
same,% binding,[6]; [19],63%
same,% binding,"[6]; biotinylated 20-mer KV1.3 10 uM, competitor 500 uM",81%
same,% binding,"[6]; biotinylated 20-mer KV1.3 10 uM, competitor 1000 uM",50%
same,reduction of labeled ligand binding,"[6]; competitor 1 mM, 50-100-fold excess, summary of TABLE 6, PDZ not given",up to 50%
"MTSSSSVV [CLASP-2 8-mer, unlabeled peptide of the C-terminal 8 amino acids of CLASP-2]",% binding,[5]; [20],105%
same,% binding,[5]; [21],75%
same,% binding,[5]; [22],93%
same,% binding,[6]; [20],90%
same,% binding,[6]; [21],80%
same,% binding,[6]; [22],85%
same,% binding,"[6]; biotinylated 20-mer KV1.3 10 uM, competitor 50 uM",82%
GTSDMKDLVGNIEQNEHSVI [Mannose Receptor],Classification,[8],1 (A450 nm 0-1)
same,Classification,[1]; PDZ KIAA807,1 (A450 nm 0-1)
same,Classification,"[1]; PDZ KIAA0807(S), PDZ Domain 1",1 (A450 nm 0-1)
same,Classification,"[3]; PDZ FLJ 00011, PDZ Domain 1",1 (A450 nm 0-1)
ACM3_HUMAN (Biotin-QQYQQRQSVIFHKRAPEQAL),Classification,[9],1 (A450 nm 0-1)
same,Classification,[8],1 (A450 nm 0-1)
same,Classification,[1]; PDZ KIAA807,1 (A450 nm 0-1)
same,Classification,"[1]; PDZ KIAA0807(S), PDZ Domain 1",1 (A450 nm 0-1)
